Source: paper PMC10438392 (Proceedings of the National Academy of Sciences of the …, 2023)

What was measured:
[1] = target: PurT of Colwellia psychrerythraea (PurTCp) (Colwellia psychrerythraea 34H); experiment: cross-linking
[2] = target: PurT of Colwellia psychrerythraea (PurTCp) (Colwellia psychrerythraea 34H); experiment: SEC
[3] = target: T1, PurTCp (PurT of Colwellia psychrerythraea) (Colwellia psychrerythraea, UniProt Q484N1); experiment: SPA competition with 3H-xanthine or 3H-guanine; format: binding; settings: 0.5 µM 3H-xanthine or 3H-guanine; pH 8.0
T1 sequence (Q484N1 1-482): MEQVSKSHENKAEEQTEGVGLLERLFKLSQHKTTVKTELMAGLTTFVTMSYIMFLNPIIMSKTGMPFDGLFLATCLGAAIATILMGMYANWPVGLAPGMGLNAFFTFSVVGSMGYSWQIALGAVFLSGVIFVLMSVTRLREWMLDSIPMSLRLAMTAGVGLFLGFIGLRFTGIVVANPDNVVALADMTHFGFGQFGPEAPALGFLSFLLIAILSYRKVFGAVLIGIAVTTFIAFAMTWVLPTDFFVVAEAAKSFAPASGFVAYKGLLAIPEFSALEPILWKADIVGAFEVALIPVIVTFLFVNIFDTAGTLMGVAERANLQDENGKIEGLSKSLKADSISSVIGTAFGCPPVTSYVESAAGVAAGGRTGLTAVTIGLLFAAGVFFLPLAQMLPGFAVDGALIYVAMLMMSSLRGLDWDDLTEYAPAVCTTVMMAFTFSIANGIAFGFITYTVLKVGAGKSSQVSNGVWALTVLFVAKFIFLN

Row | Molecule | stoichiometry N [1] | stoichiometry N [2] | % inhibition at 250 μM [3]
1 | PurT of Colwellia psychrerythraea (PurTCp) (natural protein) | 2 | 2 | 
2 | c1ncc2[nH]cnc2n1 [purine] |  |  | 2-amino-6-bromopurine, 6-bromopurine, 6-thioguanine, allopurinol, isoguanine, and purine
